The values below come from patent US20210198328A1, “MODULATED CAS-INHIBITORS” (Universität Heidelberg, priority 2017, published 2021).

The assay concerns dCas9-3xRFP. Put plainly: Telomere labeling, automated image analysis. Type of assay: cell-based, Streptococcus pyogenes. The settings on record: U2OS, light or dark 20 h. As to the method: U2OS cells were seeded into 4-compartment CELLview cell culture dishes (Greiner Bio-One) at a density of 30,000 cells per compartment. The next day, cells were transfected with vectors encoding (i) a CMV promoter-driven dCas9-3xRFP-P2A-CASANOVA and a U6 promoter-driven telomere-targeting gRNA, (ii) a telomere-targeting gRNA and GFP transfection marker, and (iii) a CMV promoter-driven CASANOVA in a ratio of 20:6:3 using 362.5 ng total DNA and 1.5 μl JetPrime for transfection (per compartment).
In the positive control samples, vector i was replaced by a vector encoding dCas9-3xRFP (without the P2A-CASANOVA) and a U6 promoter-driven telomere-targeting RNA, and vector iii was replaced by an irrelevant DNA. […] SlowFade™ Diamond Antifade Mountant with DAPI (Invitrogen) was added and imaging was performed using the aforementioned microscopy setup and the following excitation/detection settings: 405 nm (1% laser powerV410-490 nm for DAPI, 488 nm (2% laser power)/493-578 nm for GFP, or 552 nm (1% laser power)/578-789 nm for RFP. RFP fluorescent spots (i.e., labeled telomeres) were then detected and quantified using a fully automated image analysis pipeline as follows. The ImageJ2 (beta) Integration in KNIME Version 3.5.2 (KNIME AG) was used to create an automated image processing and analysis pipeline employed for quantification of labeled telomeres. […]

B1: AcrIIA4: anti-CRISPR polypeptide of a Listeria monocytogenes prophage, SEQ ID NO: 1 (protein)
chain: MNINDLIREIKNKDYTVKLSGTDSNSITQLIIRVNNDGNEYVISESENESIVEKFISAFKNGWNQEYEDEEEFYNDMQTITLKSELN
modifications: Listeria monocytogenes
As to B1, the “telomere labeling, light-independent” value is given as “weak”.
